# Like-named read-outs stand apart in the source and are kept apart here.
# How the values were obtained:
# [1] = biological target: Recombinant Human VEGFR2/KDR Protein, His tag (hVEGFR2-his) (human) (UniProt P35968); test: ELISA, human VEGFR2-his coated, anti-human Fc-HRP
# [2] = biological target: Recombinant Rhesus macaque VEGFR2/KDR Protein, His tag (rhesus macaque); test: ELISA, rhesus VEGFR2-his coated, anti-human Fc-HRP
# [3] = biological target: human VEGFR2 on HUVEC cells (human) (UniProt P35968); test: flow cytometry on HUVEC cells, MFI, anti-human IgG (H+L)-PE
# human VEGFR2 on HUVEC cells (human), sequence (P35968 20-1356 V297I/Q472H limits assumed): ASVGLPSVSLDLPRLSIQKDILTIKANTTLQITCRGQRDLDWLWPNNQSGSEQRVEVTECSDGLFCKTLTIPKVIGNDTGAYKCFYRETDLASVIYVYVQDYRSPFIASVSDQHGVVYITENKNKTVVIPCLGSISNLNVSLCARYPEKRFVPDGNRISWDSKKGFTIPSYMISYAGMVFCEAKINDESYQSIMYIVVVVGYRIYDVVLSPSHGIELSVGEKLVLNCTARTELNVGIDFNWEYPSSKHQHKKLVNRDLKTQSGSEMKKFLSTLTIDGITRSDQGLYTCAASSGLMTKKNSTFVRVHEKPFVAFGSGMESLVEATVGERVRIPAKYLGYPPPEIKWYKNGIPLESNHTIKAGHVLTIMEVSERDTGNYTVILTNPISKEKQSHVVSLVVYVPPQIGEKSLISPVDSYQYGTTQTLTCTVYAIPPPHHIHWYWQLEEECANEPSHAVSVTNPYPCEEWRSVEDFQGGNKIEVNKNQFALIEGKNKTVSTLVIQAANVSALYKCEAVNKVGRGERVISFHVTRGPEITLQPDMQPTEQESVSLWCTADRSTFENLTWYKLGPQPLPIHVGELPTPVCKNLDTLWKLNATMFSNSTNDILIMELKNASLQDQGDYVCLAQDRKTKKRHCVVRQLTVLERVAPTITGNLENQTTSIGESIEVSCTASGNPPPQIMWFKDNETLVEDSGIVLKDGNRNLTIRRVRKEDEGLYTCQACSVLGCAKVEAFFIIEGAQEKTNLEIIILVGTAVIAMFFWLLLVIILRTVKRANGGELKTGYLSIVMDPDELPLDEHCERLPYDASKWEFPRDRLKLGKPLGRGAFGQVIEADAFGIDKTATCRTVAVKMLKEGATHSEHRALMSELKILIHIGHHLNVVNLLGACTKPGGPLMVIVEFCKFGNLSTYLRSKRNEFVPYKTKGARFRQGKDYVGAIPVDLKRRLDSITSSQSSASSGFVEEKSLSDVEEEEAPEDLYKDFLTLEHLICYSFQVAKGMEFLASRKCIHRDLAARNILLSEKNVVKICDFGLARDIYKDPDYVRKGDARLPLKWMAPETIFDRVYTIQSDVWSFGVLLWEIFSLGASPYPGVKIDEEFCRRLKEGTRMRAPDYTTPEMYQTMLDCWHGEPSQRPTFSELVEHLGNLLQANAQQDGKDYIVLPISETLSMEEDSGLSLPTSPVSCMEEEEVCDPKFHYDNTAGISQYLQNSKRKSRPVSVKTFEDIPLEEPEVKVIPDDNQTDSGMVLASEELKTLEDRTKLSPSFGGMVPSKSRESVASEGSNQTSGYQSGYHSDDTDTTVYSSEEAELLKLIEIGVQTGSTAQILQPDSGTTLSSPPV
# [4] = biological target: Recombinant Human VEGFR2/KDR Protein, His tag (hVEGFR2-his) (human) (UniProt P35968); test: competition ELISA: VEGF-A coated (0.25 ug/ml), antibody titrated together with 1 ug/ml human VEGFR2, detection with mouse anti-VEGFR2 serum and anti-mouse Fc-HRP; blocked ligand VEGF-A
# [5] = biological target: Recombinant Rhesus macaque VEGFR2/KDR Protein, His tag (rhesus macaque); test: competition ELISA: VEGF-A coated (0.25 ug/ml), antibody titrated together with 1 ug/ml rhesus VEGFR2, detection with mouse anti-VEGFR2 serum and anti-mouse Fc-HRP; blocked ligand VEGF-A
# [6] = biological target: human VEGFR2 on HUVEC cells (human) (UniProt P35968); test: flow cytometry on HUVEC cells, percent shifted cells (Shift %), anti-human IgG-PE
# [7] = biological target: Recombinant Human VEGFR2/KDR Protein, His tag (hVEGFR2-his) (human) (UniProt P35968); test: competition ELISA: VEGF-A coated (0.25 ug/ml), antibody mixed with VEGFR2, detection with mouse anti-VEGFR2 serum and anti-mouse Fc-HRP; blocked ligand VEGF-A
# [8] = biological target: Recombinant Rhesus macaque VEGFR2/KDR Protein, His tag (rhesus macaque); test: ELISA, rhesus VEGFR2-his coated, anti-human Fc-HRP; remark: listed apart in the source
# [9] = biological target: Recombinant Human VEGFR2/KDR Protein, His tag (hVEGFR2-his) (human) (UniProt P35968); test: competition ELISA: hVEGFR2-his coated (1 ug/ml), antibody titrated, then 0.3 ug/ml hVEGF-A added and bound VEGF-A detected; blocked ligand hVEGF-A
# [10] = biological target: Recombinant Human VEGFR2/KDR Protein, His tag (hVEGFR2-his) (human) (UniProt P35968); test: ELISA, hVEGFR2-his coated (0.5 ug/ml), anti-human Fc-HRP
# Recombinant Rhesus macaque VEGFR2/KDR Protein, His tag (rhesus macaque), sequence (chain, as listed by the source): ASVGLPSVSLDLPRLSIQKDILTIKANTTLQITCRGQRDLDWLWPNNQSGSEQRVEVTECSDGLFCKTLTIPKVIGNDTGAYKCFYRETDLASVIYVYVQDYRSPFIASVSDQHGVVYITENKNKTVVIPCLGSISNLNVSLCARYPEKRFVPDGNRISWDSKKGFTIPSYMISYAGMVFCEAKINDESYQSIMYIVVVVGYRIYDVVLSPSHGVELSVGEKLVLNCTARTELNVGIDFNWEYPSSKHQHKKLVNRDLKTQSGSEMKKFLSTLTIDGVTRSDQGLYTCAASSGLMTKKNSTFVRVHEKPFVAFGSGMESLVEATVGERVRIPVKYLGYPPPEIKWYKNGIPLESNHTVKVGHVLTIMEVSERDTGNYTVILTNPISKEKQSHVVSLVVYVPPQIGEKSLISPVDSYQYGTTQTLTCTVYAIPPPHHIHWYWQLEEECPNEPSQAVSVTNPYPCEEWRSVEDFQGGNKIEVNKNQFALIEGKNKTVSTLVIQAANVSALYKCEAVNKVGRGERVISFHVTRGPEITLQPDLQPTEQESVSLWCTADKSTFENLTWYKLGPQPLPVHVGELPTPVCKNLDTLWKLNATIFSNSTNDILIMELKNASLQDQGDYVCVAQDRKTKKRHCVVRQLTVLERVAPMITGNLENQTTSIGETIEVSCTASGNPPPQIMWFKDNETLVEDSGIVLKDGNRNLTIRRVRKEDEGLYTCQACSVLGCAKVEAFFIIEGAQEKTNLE
# Recombinant Human VEGFR2/KDR Protein, His tag (hVEGFR2-his) (human), sequence (P35968 other isoform, or with tags, fused parts or gaps): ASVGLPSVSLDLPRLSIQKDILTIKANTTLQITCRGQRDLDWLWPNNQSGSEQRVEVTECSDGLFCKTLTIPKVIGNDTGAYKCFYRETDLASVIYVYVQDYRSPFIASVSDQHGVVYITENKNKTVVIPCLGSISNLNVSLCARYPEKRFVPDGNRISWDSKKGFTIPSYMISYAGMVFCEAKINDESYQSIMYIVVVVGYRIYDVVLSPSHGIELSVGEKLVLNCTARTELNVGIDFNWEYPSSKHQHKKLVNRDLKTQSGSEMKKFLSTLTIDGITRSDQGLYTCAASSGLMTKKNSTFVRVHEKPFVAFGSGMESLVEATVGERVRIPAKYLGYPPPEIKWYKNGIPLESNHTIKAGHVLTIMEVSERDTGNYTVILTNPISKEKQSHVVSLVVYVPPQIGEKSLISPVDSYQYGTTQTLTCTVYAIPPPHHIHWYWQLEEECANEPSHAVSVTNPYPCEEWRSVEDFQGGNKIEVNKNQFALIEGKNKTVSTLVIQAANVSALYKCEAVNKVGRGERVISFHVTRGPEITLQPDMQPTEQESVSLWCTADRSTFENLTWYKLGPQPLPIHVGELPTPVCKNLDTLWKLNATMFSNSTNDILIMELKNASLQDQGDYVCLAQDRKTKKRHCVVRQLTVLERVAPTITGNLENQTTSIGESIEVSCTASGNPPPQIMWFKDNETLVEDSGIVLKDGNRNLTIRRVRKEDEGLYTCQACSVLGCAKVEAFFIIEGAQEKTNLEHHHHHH
substance,measurement,setting,value
"1121B (benchmark antibody, Ramucirumab)",EC50,[1],0.00871 µg/mL
same,EC50,[2],0.0088 µg/mL
same,EC50 (read off the curve),[3],0.1 µg/mL
same,IC50,[4],0.849 µg/mL
same,IC50,[5],0.805 µg/mL
same,EC50,[6],0.0682 µg/mL
same,IC50,[7],0.126 µg/mL
same,EC50,[8],0.00919 µg/mL
same,IC50,[9],0.0285 µg/mL
same,EC50,[10],0.00926 µg/mL

# Reference: patent US20240209099A1
